Values quoted from earlier work as cited in PMC7062049.

Biological target: HP1β CSD (Mus musculus) (UniProt P83917)

- Kd: 0.15 µM
Substance: HP1β CSD (from UniProt P83917)
